Measured values reported in patent US20090111104A1, “Method for Monitoring Hydrolytic Activity” (Fluorotechnics Pty Limited, priority 2005, published 2009).

Experiments:
Assay type in all cases: biochemical, bovine
BSA [1] = molecular target: T1, BSA (Bos taurus, UniProt P02769); assay: Real-time monitoring of trypsin digestion of BSA using epicocconone (FluoStar assay); details: epicocconone reporter dye, bicine pH 8.4, 37° C., trypsin 1:40, reduced and alkylated BSA
T1 construct: purchased Sigma-Aldrich A3059
T1 sequence (P02769 25-607): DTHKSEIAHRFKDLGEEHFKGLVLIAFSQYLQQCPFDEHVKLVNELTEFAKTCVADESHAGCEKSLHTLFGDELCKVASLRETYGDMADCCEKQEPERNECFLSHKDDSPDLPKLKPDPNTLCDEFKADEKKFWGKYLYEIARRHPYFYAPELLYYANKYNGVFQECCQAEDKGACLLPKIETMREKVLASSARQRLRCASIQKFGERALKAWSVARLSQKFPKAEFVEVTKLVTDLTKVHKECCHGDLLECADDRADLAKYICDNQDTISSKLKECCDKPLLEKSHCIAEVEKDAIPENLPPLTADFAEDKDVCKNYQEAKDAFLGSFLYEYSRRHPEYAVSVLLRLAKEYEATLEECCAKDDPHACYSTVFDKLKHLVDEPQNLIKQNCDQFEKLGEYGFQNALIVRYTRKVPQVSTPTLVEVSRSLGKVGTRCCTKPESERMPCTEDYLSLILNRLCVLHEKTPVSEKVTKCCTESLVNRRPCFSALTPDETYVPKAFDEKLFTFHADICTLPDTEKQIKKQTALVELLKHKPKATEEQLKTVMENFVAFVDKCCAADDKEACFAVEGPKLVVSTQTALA
Experimental: A.3.1 Preparation of BSA for digestion • 1 Trypsin digestion was carried out in bicine buffer (ph 8.4). • 2 BSA was prepared in 10 mg/mL in 50 mM bicine buffer. • 3 One hundred microliter of the BSA sample was used for trypsin digestion.
A.3.2 Reduction and Alkylation • 1 The 100 μL of BSA sample was reduced by adding 5 μL of DTT stock for 10 min at 80° C. • 2 The sample was alkylated by adding 4 μL of the iodoacetamide stock at room temperature for 45 min-1 hr. • 3 The remaining iodoacetamide of the sample was neutralized by adding 20 μL of the DTT at room temp for 45 min-1 hr.
A.3.3 Real-Time Monitoring of Trypsin Digestion Using Epicocconone (FluoStar Assay) • 1 The reduced and denatured BSA sample from 3.2 above was diluted 10-fold in 50 mM bicine buffer (25 μL+225 μL bicine buffer). BSA molar concentration was calculated to be approx. 4 μM. • 2 One hundred microliter of the sample (step 1) was prepared in duplicates and added to a microtiter plate. […] At this point in time, it required approximately 10 min to get appropriate FluoStar setting conditions. • 4 Trypsin (Sigma-Aldrich T6567), reconstituted in 1 mM HCl, was added at a ratio of 1:40. • 5 Fluorescence development was monitored in real time every 2 minutes up to 6 hours using FluoStar (Ex/Em=540/630±12). […]

BSA [2] = molecular target: T1, BSA; assay: Tryptic digestion of BSA followed with Nile Red; details: Nile Red reporter dye
Experimental: • As per Example 2 above. • Nile Red (20 mM in ethanol, Sigma-Aldrich, 73189) diluted to 100-fold in 50 mM bicine
As per Example 2 except the Fluorostar plate reader was set to 520 nm excitation and 630 (±10 nm) bandpass emission filter.

BSA [3] = molecular target: T1, BSA; assay: Sub-sampled BSA tryptic digest visualised by SDS-PAGE (Deep Purple stain)
Experimental: A.3.4 Visualization of Trypsin Digests in SDS-PAGE • 1 The reduced and denatured BSA sample from 3.2 above was diluted 10-fold in 50 mM bicine buffer (25 μL+225 μL bicine buffer). BSA molar concentration was calculated to be approx. 4 μM. • 2 One hundred microliter of the sample (step 1) was added to a 1.5 mL microtube. Controls included a bicine-based digestion buffer and an undigested BSA sample (no trypsin). • 3 Epicocconone stock solution was diluted 100-fold in 50 mM bicine. One hundred microliter of diluted epicocconone solution was added to each corresponding well. The final concentration was 12 μM. […] At each sampling point, 15 μL of the samples were taken out, immediately mixed with 15 μL of a protein gel loading buffer (2×), denatured for 5 min at 85° C., and stored at −80° C. • 6 The sub-samples collected as described above were run by SDS-PAGE (Nupage, 12% BT gel), and gels were stained with Deep Purple for visualization. • 7 The Deep Purple-stained gels were imaged by Typhoon scanner (Ex:Em=532:560 LP; 440 PMT). • 8 All the gel lanes showing digested (FIG. 12A) and undigested (FIG. 12B) protein samples were equally gated, and the fluorescent intensity was measured by ImageQuant (v 5.2) software.
The results from the subsampled reaction was similarly analysed but without the term associated with degradation of the signal with time as this is not relevant in gels. […]

apparent first order rate constant (BSA [1]): 0.109 min⁻¹
apparent first order rate constant for tryptic digestion (BSA [2]): 0.1302 min⁻¹
time for digestion to reach completion (BSA [3]; SDS-PAGE, bicine and carbonate (NH4HCO3) digestion buffers): 0.5 to 1 h
apparent first order rate constant (BSA [3]; sub-sampled reaction, gel fluorescence intensity, 0-128 min): 0.3136 min⁻¹
B1: trypsin: Proteomics grade trypsin protease, Sigma-Aldrich T6567 (protein, UniProt P00761 9-231, looked up)
Trypsin: IVGGYTCAANSIPYQVSLNSGSHFCGGSLINSQWVVSAAHCYKSRIQVRLGEHNIDVLEGNEQFINAAKIITHPNFNGNTLDNDIMLIKLSSPATLNSRVATVSLPRSCAAAGTECLISGWGNTKSSGSSYPSLLQCLKAPVLSDSSCKSSYPGQITGNMICVGFLEGGKDSCQGDSGGPVVCNGQLQGIVSWGYGCAQKNKPGVYTKVCNYVNWIQQTIAAN
